Assay results taken from the domain aggregation screens of Martell et al. (2025).

test: soluble fraction after stress (log2 fold change); higher = more stays soluble; pooled small domains, quantitative proteomics; settings: stress: 50 degC
Method in brief: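 Pooled custom libraries of small protein domains were each held under stress at 50°C. The read-out, high-throughput quantitative proteomics, tracked how much of each protein stayed soluble. This is reported as a base-two log fold change used to indicate aggregation propensity. Higher values mean more protein remains in solution.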

| Sequence | soluble fraction (log2) |
| --- | --- |
| HMSKMTLGENLRLLRREKGLSQEQVAQTLFVARQTISKWENGQAEPGVESLKALAKLYGVSLDRLVGA | -0.0483 |
| HMAVTEVKTTAVVNMRSSDSEKADKLGKAQIGDTFRVLEQRANGWTKLTDGTQEFFIKSEYLEAIA | 0.0956 |
| HMQLFKFKNAMMELAKNKNITLDTAEKAIGLEAGFTELVARGVKELALSDVIKISKYFNTTMDSVLD | -0.903 |
| HMIMDQTILRKQRELTDRLNRYRNEYYNHNKPSVSDEVYDRLFDELQSLEKETGVQMANSPTTTVG | -0.0145 |
| HMEPVQFIQFKIPDGHPWSGQLLREVRLPPGTLVVLLKHDGKNIIPNGETPLLAGDSVILSAASPT | -0.197 |
| HMSPSDLSAEAQKVYALLDGRELSFDTLVEESGFDTGSLLAILMRLEMKMLVEHGADQVYRRSG | -0.58 |
| HMGKTRSTDRTRRAILDAASDLMGKHGTSVSLARIAEAAGMSKGGLLHHFPSRNDLIRALGED | 0.189 |
| HMDEAEELYQAVQALKPKYREVILLHYYQGLRVGEIAAILRAPQSTVSIRLRRARQMLNRMLG | -0.548 |
| HMAFDESLVRSIQELLSELGYSPGKIDGLLGAKTVAAIKAFELEINKDQLTGEPSEELLIALQLAIRSSKM | -1.13 |
| HMDWVAYGAELRRRRLLAGWTVAELSRRINLSGMTIHQIEKGRGRLRPSELTLAKLAAALGMPTP | -3.47 |
| HMNAVYAEERRAYILAALEKRGTVHSYELAEQMGVSRETIRRDIMELSNRGLLVKTHGGAIST | -0.686 |
| HMTRQKEAILALLTDSRGEALSASELLARLTRSGSSIGRTTVYRLLSQLVDDGVVRAWRDASRGITLYELS | -0.113 |
| HMSEYLDIHMAMEKLNRKEQLFVHLRFYEGLTQSEIAQRLFTSQVQISRLEKSVLEKMRQILSK | -1.34 |
| HMPSEQGANKARDIIFRHHMKVDVWVGSWENARNYAEQAIKQGVKVIISRGGTAALLRHSLDTAIIKVR | 0.0222 |
| HMGDWITGTVTRIADNGWGTFQPENAHNTVSIPPKMVADNQLKEADSIKIIAEPSPDGTKTFIKAISRE | -0.00712 |
| HMAHYYVRNGYYYYQRRIPLDLRKFYSGANIKASLKTKDPAIAALFVAKFDRQYDAEFAQRRLNPD | -0.482 |
| HMGVEKHLRITGTSTVSWKDAIVQAVAEASKTIDYLSNVKIIEQRARIDGKKLVEYFVDLDLSFVID | -0.0917 |
| HMTELIEDYVELIGDLIRHRGEARAADIANRMAVSQATVSKMIRRLNELGLVTSKPYRSLFLTDEGQKMAE | -0.474 |
| HMQNAETPDVAAEFRTWTSADGQFQVIAKLVKLDGESVHLERQDDGRQIAVPLGKLSSEDRLFLRGVRP | 0.0447 |

| Sequence | soluble fraction (log2) |
| --- | --- |
| HMAEQLGNSRTANMVMLGAMIERTGVISIDSAMEALKATFGPKKEHLLPINRQAMEAGAAAARAV | 0.303 |
| HMKTRTVVLKSAGGNKIAVIKIIKEITGLGLVEAKAVADNGGNIKENIPAEEAEAIKTQLTEAGAEVEL | -0.192 |
| HMDVPTSSITEVKKSPMDVFAQARKAETGVYIFNREKIAGVMLTKEQYEALVEELNTLRDTL | -0.438 |
| HMQGVTVPDLTRVSLEEAVATISSLGLRYEISDRRSNAAFPANYVLDQAPGANTIVKPNRKVYLTVNAA | 0.35 |
| HMSDTSAIEKIIDEVLSDESSQKAINDIKNGNEKVYGFLVGQVMKKSQGKANPGLVQKMLREKIAK | 0.212 |
| HMGNIITQEAAVKLAQDRVPNATLVKIEYDFDDGRPVYEGELREGRWEYEFEIDAATGEFLKWEKD | 0.04 |
| HMNQEIELLLREPDFTSAARLAMAINERFTNSARAIDPTSVKVRMPEGLDQASVDFVARLEDIEMSPDT | -0.0281 |
| HMVMNYKKIGKKIADRRILLGITQEELAEKVDSSANYISNIETGIKSGSLIFYIKVANELKLSLDFLFSDE | -0.893 |
| HMVGLKWYDTGNKKPPIGTEYKNTELSEALKGHDRKEFTWKELDVLGVNITDKEQYIVVGENYYTQV | -0.197 |
| HMTISGSDLKAQREALNIPLERIAKETRIRLSILQDLEDEEYSELSSSAQTKGFLRLYADYLSSHKQRLG | -0.415 |
| HMTVVLPGESLTVNIIQEGKELGQGVGYLDDGTMVVIEDGRRYIDQTIEVTVTRVLQTVAGRMIFAQLT | -0.646 |
| HMKKNNTTPIPKTLNYVNIKGLSNEAVERLNKHKPSTLGQASRLEGITPAATSLISIAIKKNQLLEKAES | 0.251 |
| HMSNSGFVKNNGKTEFYDASGRQAKSSWINISGKWYYFDLNGTMVTGWQRISNKWYYFLEDGSK | 0.0383 |
| HMGNLVDGINKKLTHVRDSLPEGYTLDEFKSAFQQQYPAAYDAYEGDKGKQFDKWLGNVIQSLPKK | 0.161 |
| HMNNISKKIKELREQNNITQNKLANDLFIKQQTVAQWENGSRALKADSIISLAKYFNVSTDYLLGLTEN | -0.339 |
| HMEITGKYKAKEDIKLKVIPLISSLDLQDIKQNTELEVKDTMNNWAYVTVQEKQGWVVLEKIEKVE | -0.0549 |
| HMQEAGLITQRIREMREKENWTQEYMAEQLGMSENGYAKIERGESNLSLKRLQQIADIFEVESAELLK | 0.0493 |
| HMNAESLIGDRAVVTVAIERNKRGRVDVTGQDWAATTRDGEEIKVGQEVLVVGISGVALIVEER | -0.426 |
